Patent US20260209301A1 (LIFEARC, published 2026)
No end group written: not given here.

T1: human GalR1 (human, UniProt P47211 1-349)
T1 sequence (looked up): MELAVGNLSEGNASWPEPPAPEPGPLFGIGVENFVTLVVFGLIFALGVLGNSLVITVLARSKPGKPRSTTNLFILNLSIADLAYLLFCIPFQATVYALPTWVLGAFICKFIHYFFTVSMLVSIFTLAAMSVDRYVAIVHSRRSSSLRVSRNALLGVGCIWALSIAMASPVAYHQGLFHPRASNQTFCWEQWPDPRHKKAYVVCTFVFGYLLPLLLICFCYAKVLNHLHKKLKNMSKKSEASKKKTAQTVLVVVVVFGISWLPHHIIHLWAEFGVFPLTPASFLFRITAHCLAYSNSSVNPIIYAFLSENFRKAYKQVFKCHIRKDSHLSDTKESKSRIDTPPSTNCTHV

T2: human GalR2 (human, UniProt O43603 1-387)
T2 sequence (looked up): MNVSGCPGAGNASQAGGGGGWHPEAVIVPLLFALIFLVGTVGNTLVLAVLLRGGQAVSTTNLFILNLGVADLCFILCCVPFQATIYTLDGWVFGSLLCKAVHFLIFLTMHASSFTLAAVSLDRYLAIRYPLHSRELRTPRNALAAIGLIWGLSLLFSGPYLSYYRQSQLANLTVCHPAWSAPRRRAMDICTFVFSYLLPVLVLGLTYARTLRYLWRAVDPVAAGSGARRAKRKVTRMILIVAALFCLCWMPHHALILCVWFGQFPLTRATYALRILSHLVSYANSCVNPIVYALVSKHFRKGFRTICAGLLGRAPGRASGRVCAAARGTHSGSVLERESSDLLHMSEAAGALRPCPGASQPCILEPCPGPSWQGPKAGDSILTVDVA

T3: cynomolgus GalR2 (Macaca fascicularis, UniProt A0A2K5WWW1 1-386)
T3 sequence: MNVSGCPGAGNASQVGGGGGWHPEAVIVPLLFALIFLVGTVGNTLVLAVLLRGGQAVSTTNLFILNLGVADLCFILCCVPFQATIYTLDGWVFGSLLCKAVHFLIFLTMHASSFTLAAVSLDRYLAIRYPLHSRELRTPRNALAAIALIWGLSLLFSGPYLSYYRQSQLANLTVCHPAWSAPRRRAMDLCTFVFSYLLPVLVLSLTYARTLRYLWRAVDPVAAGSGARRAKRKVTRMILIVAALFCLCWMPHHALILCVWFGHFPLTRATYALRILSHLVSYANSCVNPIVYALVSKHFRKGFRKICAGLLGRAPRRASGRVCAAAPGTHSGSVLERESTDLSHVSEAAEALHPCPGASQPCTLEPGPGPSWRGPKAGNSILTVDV

T4: mouse GalR2 (Mus musculus, UniProt O88854 1-371)
T4 sequence (looked up): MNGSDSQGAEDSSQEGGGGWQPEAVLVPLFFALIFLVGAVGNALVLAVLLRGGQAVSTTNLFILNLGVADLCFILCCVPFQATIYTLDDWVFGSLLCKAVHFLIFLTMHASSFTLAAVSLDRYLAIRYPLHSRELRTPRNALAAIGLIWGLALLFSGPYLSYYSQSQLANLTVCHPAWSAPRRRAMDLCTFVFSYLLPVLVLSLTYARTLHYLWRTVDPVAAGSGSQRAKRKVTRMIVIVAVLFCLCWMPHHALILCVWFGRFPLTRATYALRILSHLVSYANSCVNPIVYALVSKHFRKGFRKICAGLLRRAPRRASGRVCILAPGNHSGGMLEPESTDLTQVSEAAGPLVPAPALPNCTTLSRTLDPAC

T5: rat GalR2 (Rattus rattus, UniProt O08726 1-372)
T5 sequence (looked up): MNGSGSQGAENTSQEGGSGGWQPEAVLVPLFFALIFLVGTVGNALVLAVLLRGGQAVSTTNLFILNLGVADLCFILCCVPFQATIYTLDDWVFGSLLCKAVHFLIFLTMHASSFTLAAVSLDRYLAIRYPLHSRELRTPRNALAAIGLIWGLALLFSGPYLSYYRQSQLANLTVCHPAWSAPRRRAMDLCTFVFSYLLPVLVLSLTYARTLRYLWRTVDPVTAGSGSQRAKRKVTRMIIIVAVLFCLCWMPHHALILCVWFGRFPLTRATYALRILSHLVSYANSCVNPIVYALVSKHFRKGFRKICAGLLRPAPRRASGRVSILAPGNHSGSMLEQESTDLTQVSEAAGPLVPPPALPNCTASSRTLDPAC


Assays:
Assay in all cases: cell-based or functional assay
[1] = biological target: T1, human GalR1
[2] = biological target: T2, human GalR2
[3] = biological target: T3, cynomolgus GalR2
[4] = biological target: T4, mouse GalR2
[5] = biological target: T5, rat GalR2

| Binder | Beta Arrestin IA (%) [1] [%] | Beta Arrestin pEC50 [1] [pEC50] | cAMP IA (%) [1] [%] | cAMP pEC50 [1] [pEC50] | Beta Arrestin pEC50 [2] [pEC50] | Calcium pEC50 [2] [pEC50] | calcium assay activity (quantity not given) [3] | calcium assay activity (quantity not given) [4] | calcium assay activity (quantity not given) [5] |
| --- | --- | --- | --- | --- | --- | --- | --- | --- | --- |
| GWTLNSAGYLLGPQPPGFSPFR [M617] | 99 | 8.68 | 90.1 | 10 | 8.4 | 9.6 |  |  |  |
| WTLNSAGYLL [Galanin 2-11] |  |  |  |  | 6.4 | 7.6 |  |  |  |
| WTLNSAGYLLGPKKKKK (also: PEG (dPEG24) on one lysine, site not given here) [Nax409-9] | 7 |  | 66 | 6.5 | 5.8 | 6.9 |  |  |  |
| GWTLNSAGYLLGPHA [Galanin 1-15] |  |  |  |  | 7.2 | 8.6 |  |  |  |
| WTLNSAGYLLGPHAIDNHRSFHDKYGLA [Galanin 2-29 (rat)] | 67.2 | 8.09 | 90.8 | 8.6 | 8.1 | 9.2 |  |  |  |
| RGRGNWTLNSAGYLLGPVLPPPALALA [M1145] | 24.5 |  | 86.7 | 6.8 | 7.9 | 8.9 |  |  |  |
| GWTLNSAGYLLGPHAVGNHRSFSDKNGLTS [Galanin 1-30 (human)] |  |  |  |  |  |  | 9.6 | 9 | 8.8 |
